This passage reports Kd results from patent US20200353050A1 (Eli Lilly, published 2020).

The Kd is the constant that tells how readily two partners part at equilibrium.

Assay [1] concerns the target T1, PD-1.
T1 construct: the paragraph before it speaks of human and cynomolgus PD-1; also called programmed cell death protein 1; CD279
As to the kind of experiment: bio-layer interferometry (BLI). In general terms: Biolayer interferometry detects binding as a change in optical thickness at a sensor tip.

The target in assay [2] is T2, human PD-1 (human, UniProt Q15116 25-167, limits assumed).
T2 construct: also called programmed cell death protein 1; CD279
Briefly: method not stated in that sentence (BLI in the next one), 25° C; 25° C; human PD-1.

In assay [3] the target is T3, cynomologous monkey PD-1 (cynomologous monkey, UniProt B0LAJ3 25-170).
T3 construct: also called cynomolgus PD-1
Briefly: method not stated in that sentence (BLI in the next one), 25° C.

T1 sequence (Q15116 25-170): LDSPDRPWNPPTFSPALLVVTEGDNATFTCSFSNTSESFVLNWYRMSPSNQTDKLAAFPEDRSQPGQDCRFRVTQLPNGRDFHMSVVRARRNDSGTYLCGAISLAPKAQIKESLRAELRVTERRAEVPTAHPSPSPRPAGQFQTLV
T2 sequence (Q15116 25-167 limits assumed): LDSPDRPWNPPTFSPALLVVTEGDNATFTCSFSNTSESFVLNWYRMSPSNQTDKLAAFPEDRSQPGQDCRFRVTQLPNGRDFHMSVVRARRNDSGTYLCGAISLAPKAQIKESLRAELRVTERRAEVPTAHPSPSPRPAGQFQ
T3 sequence (B0LAJ3 entry or part of it limits assumed): as the sequence (Q15116 25-170) above, with D2E, P10A, V19L, T35A, Q75R, T144A counted along it

B1: AM0001 (antibody, human IgG4 S228P, lambda, V domains shown)
VH: EVQLLESGGGLVQPGGSLRLSCPASGFTFSSYAMSWVRQAPGKGLGWVSDISGGGGTTYYADSVKGRFTISRDNSKNTLYLQMNSLRGEDTAVYYCAKSGTVVTDFDYWGQGTLVTVSS
VL: SYVLTQPPSVSVAPGQTARVTCGGNSIGSYSVHWYQQKPGQAPVLVVYDDSDRPSGIPERFSGSNSGNTAALTISRVEAGDEADYYCQVWDTSSYWVFGGGTKLTVLG
notes: Monoclonal antibody with a lambda 2 light chain and a hinge-stabilized IgG4 (S228P) heavy chain; also called PD1-antagonist antibody AM0001; VH-09/VL-09
With B1, the Kd was less than 0.001 nM in assay [1], no more than 0.01 nM in assay [2] and no more than 0.01 nM in assay [3].
